One block for each molecule: values may come before it.
Test: Bioconversion of eugenol to vanillin: one-pot concurrent cascade EUGO + alkene cleavage oxygenase (5 mM scale)
Format: biochemical
Details: Table 8b, EUGO FD-CFE 1 mg/mL, CO-0X FD-CFE 1 mg/mL, catalase 10 mg/mL, eugenol 5 mM
Experimental: Stock solutions of eugenol (100 mM) were prepared in ethanol or DMSO and stored at −20° C. Unless otherwise stated, the reaction mixtures (0.5 mL) were set up in 1.5 mL glass vials as follows: freeze-dried cell free extract of IECO/CO-XX (3 mg) and EUGO (0.5 mg) were dissolved in the reaction buffer (50 mM glycine-NaOH pH 9.0) containing sodium ascorbate (1 mM), FeSO4 (1 mM) and bovine liver catalase (5 mg, Sigma Aldrich C40). The reaction was initiated by the addition of 0.025 mL eugenol stock (final concentration 5 mM), then incubated at 30° C. and 120 rpm overnight (rotary shaker). The final content of cosolvent was 5% v/v. To improve oxygenation, the vials were placed horizontally. At certain time points, samples (0.2 mL) were quenched with methanol (0.4 mL) and the mixture was centrifuged at 20238 g for 5-10 mins. Finally, the supernatant was analysed by HPLC.
EUGO (0.5 mg CFE), CO-25 (3 mg CFE) and catalase (5 mg, Sigma product #C40) were dissolved in 50 mM Glycine-NaOH pH 9.0 or Tris-HCl pH 8.0 together with FeSO4 (1 mM) and sodium ascorbate (1 mM). Note that the buffer content of the freeze-dried biocatalyst prep was not considered for the assembling of the reaction. The reaction was started by the addition of 5 mM eugenol from a 20× stock in ethanol. The reactions—performed in glass vials—were then incubated at 30° C. and 120 rpm (25 mm shaker). Finally, samples of the reaction mixture were diluted with MeOH and analyzed by HPLC at 280 and 340 nm.

B1: CO-23: alkene cleavage oxygenase, Pseudomonas viciae, SEQ ID NO: 130 (protein, listed as Pseudomonas viciae)
chain: MTIPFPQTPEFSGALYTPSRVEAEVFDLEIEGVLPASIGGTFYQVAPDPQYPPMLGNDIFFNGDGVVSRFNFANGKVSMRRRYVKTDRLLAQRREGRSLNGVYRNVYTNDRLAAKNNTTANTTVIPHNGVLLALKEDALPWAMDLDTLETLGEWTFDGQIKSATFTAHPKLDPVTGNLLACSYEAKGDGTPDLAYFEISPDGKLLHEIWFQAPYAAMVHDFAVTERYVVFPLIPLTVDVERMKNGGPHFQWQPDLPQLFAVVPRNGNAQDVRWFKGPKDGFQGHTLNAFDEDGKVYVDMPVTGGNIFYFFPQADGYVPPPETLAASLMRWTFDLNSALDEVEPQPLTDYPCEFPRCDDRYIGRKYQHGFLLAFDPERPYNPANGPIPFQFFNLLVHLNLKTGITDAWFPGDSGCFQEPIFIPRSADAEEADGYVVALLNLIAEGRSELVVLDSRDMASGPIARIRIPFRMRMSLHGCWTADPN
Product distribution after 24 hours 2a (%) (pH 8.0): 69.0%
Product distribution after 24 hours 3a (%) (pH 8.0): 13.7%
Product distribution after 24 hours 5a (%) (pH 8.0): 17.3%
Product distribution after 24 hours 2a (%) (pH 9.0): 67.0%
Product distribution after 24 hours 3a (%) (pH 9.0): 13.6%
Product distribution after 24 hours 5a (%) (pH 9.0): 19.4%

B3: CO-20: alkene cleavage oxygenase, Pseudomonas frederiksbergensis, SEQ ID NO: 120 (protein, listed as Pseudomonas frederiksbergensis)
chain: MTHPFPQTPEFSGALYAPSRVEAEVFDLEVEGTLPDSIRGAFYQVAPDPQYPPMLGNDIFFNGDGMVSAFNFADGKVSMRRRYVKTDRLMAQRREGRSLNGVYRNVFTNDPLAAKNNTTANTSVVAHNGVLLALKEDALPWAMDLETLETLGEWSFDGQIESATFTAHPKLDPVTGNLLAFSYEAKGDGTPDLAYFELSPDGKLLHQIWFQAPYAAMVHDFAVTEHYVVFPLIPLTVDVERMKNGGQHFQWQPDLPQLFAVVPRNGHAEDVRWFKGPKDGFQGHTLNAFDEDDKVYVDMPVTGGNIFYFFPQADGYVPPPETLAASLMRWTFDLTSTQDDIQPQPLTDYPCEFPRCDDRYIGRKYEHGFVLAFDPERPYNPANGPIPFQFFNLLARVNLKTGATDAWFPGDSGCFQEPIFIPRAPDAQEADGYVVALLNLIAEGRSELVVLDSRDMASGPIARIKVPFRLRMSLHGCWVPSKK
Product distribution after 24 hours 2a (%) (pH 8.0): 59.4%
Product distribution after 24 hours 3a (%) (pH 8.0): 23.6%
Product distribution after 24 hours 5a (%) (pH 8.0): 17.0%
Product distribution after 24 hours 2a (%) (pH 9.0): 57.8%
Product distribution after 24 hours 3a (%) (pH 9.0): 22.0%
Product distribution after 24 hours 5a (%) (pH 9.0): 20.2%

B5: CO-24: alkene cleavage oxygenase, Pseudomonas ogarae, SEQ ID NO: 132 (protein, listed as Pseudomonas ogarae)
chain: MSIPFPQTPEFSGVLYTPSRVEAEVFDLEIEGILPASICGTFYQVAPDPQYPPMLGNDIFFNGDGVVSRFNFANGKVSMRRRYVKTDRLLAQRREGRSLNGVYRNVYTNDPLAAKNNTTANTTVIPHNGVLLALKEDALPWALDLETLETLGEWTFDGQIKAATFTAHPKLDPVTGNLLACSYEAKGDGTPDLAYFEISPDGKLLHEIWFQAPYAAMVHDFAVTERYVVFPLIPLTVDVERMKNGGPHFQWQPDLPQLFAIVPRNGCGQDVRWFKGPKDGFQGHTLNAFDEDGKVYVDMPVTGGNIFYFFPQADGYVPPPETLAASLMRWTFDLNGAQEDVQPQPLTEYPCEFPRCDDRYIGRKYQHGFLLAFDPERPYNPANGPIPFQFFNLLAHLDLQTGRTDAWFPGDSGCFQEPIFIPRSADAEEADGYVVALLNLIAEGRSELVVLDTRDMASGPIARIRIPFRMRMSLHGCWAPND
Product distribution after 24 hours 2a (%) (pH 8.0): 78.5%
Product distribution after 24 hours 3a (%) (pH 8.0): 6.1%
Product distribution after 24 hours 5a (%) (pH 8.0): 15.4%
Product distribution after 24 hours 2a (%) (pH 9.0): 73.9%
Product distribution after 24 hours 3a (%) (pH 9.0): 5.6%
Product distribution after 24 hours 5a (%) (pH 9.0): 20.5%

Results, then the molecule that gave them:

Product distribution after 24 hours 2a (%) (pH 8.0): 73.1%
Product distribution after 24 hours 3a (%) (pH 8.0): 7.8%
Product distribution after 24 hours 5a (%) (pH 8.0): 19.1%
Product distribution after 24 hours 2a (%) (pH 9.0): 65.8%
Product distribution after 24 hours 3a (%) (pH 9.0): 11.8%
Product distribution after 24 hours 5a (%) (pH 9.0): 22.5%
B2: CO-17: alkene cleavage oxygenase, Coniochaeta pulveracea, SEQ ID NO: 82 (protein, listed as Coniochaeta pulveracea)
chain: MAHIFDLAPEVSLPDEPIYKDGKLHRPNHVQFPQTPVFASMNKPSRFEGTILSLEHTGIIPPEINGTFFRVQPDHRFPPMFEDDIHFNGDGSVTAIRIFDGKVDFRQRYVHTERYKAETKARRSLFGRYRNPWTDNESVKGVIRTASNTNVFFWRGMLLATKEDGPPYAMDPVTLETYGRYDFEGQILSPTFTAHPKFDPRTGEMVCFAYETGGDGADCSREVMVWTLDKDGKKVSERWFEAPFAGMIHDCGLSENWLVLPLTPIKMDLERMKRGGNKFAWDPKEDQVYGLVPRRGDGEVKWFRGENAFHGHVAGCYENAQGHVVIDLTVADGNVFFWFPPDGEEQGQFAKRNKLSSPTHRWILDPSLPNNARITPALVWPTNGEFSRIDDRWTTRKYKHFWLAKVDPSRPYDFAKCGPPAGGLFNCLGHYTWDLDNELATGQEDVYFAGPTCTFQEPTFIPKGDKEGEGWLIALVNHLDVLRNDVVILDAQNLAKGPVCTIHLPLKLKLGLHGNWVDWRDIEDWTKRRQEDGEVGPVQVATEMLPWQKAFWEKEKEKNGNGVEGPNINGTNGANGTNGVNGSSH

Product distribution after 24 hours 2a (%) (pH 8.0): 69.4%
Product distribution after 24 hours 3a (%) (pH 8.0): 15.0%
Product distribution after 24 hours 5a (%) (pH 8.0): 15.6%
Product distribution after 24 hours 2a (%) (pH 9.0): 63.2%
Product distribution after 24 hours 3a (%) (pH 9.0): 16.8%
Product distribution after 24 hours 5a (%) (pH 9.0): 20.0%
B4: CO-22: alkene cleavage oxygenase, Pseudomonas kilonensis, SEQ ID NO: 128 (protein, listed as Pseudomonas kilonensis)
chain: MTIPFPQTSEFSGALYTPSRVEAELFDLEVEGTLPAEIRGAFYQVAPDPQYPPMLGTDIFFNGDGMVTGFYFANGKVSMRRRYVKTDRLMAQRREGRSLNGVYRNLYTNDPLAAKNNTTANTTVIPHNGVLLALKEDALPWAMDLETLETLGEWTFDGQIKAATFTAHPKRDPATGNLLAFSYEAKGDGTPDIAYFEISPDGKLLHEIWFQAPYAAMVHDFAVTERYVVFPLIPLTVDVERMKNGGPHFQWQPDLPQLFAVVPRNGNAQDVRWFKGPKDSFQGHTLNAFDEDGKVYVDMPVTGGNVFYFFPQADGYVPPPETLAASLMRWTFDLSSPQDEVEPQPLTEYPCEFPRCDDRYIGRKYQHGFLLAFDPERPYNPANGPIPFQFFNLLVHLNLKTGSTDAWFPGDSGCFQEPIFIPRSADAEEADGYVVALLNLIAEGRSELVVLDSRDMAGGPIARIRIPFRMRMSLHGCWAPSD
